Data taken from patent US20230340607A1 (UNIVERSITY OF PITTSBURGH OF THE COMMONWEALTH SYSTEM OF …, published 2023).

Columns and labels:
integrin β1 = target: T1, integrin β1 (UniProt P05556 21-798); assay: co-immunoprecipitation with anti-RAD51AP1 antibody from T47D cell lysate, immunoblot
T1 construct: also called ITGB1; integrin B1
Description: (§1) To identify the key molecules important for RAD51AP1-DYRK4 to modulate MEK signaling, the RAD51AP1 interactants were investigated with the Entrez Gene database. […] Immuno-precipitation was performed using the RAD51AP1 antibody in the T47D cells overexpressing E9-E2 or wtRAD51AP1.
(§2) Immunoprecipitation. The cells were seeded in 10 cm² dishes with 200 ng/ml for one week. After one week doxycycline treatment, doxycycline-induced T47D OE cells were freshly harvested and lysed in NETN-400 buffer ([…] Tris-HCL, pH 8.0, […] NaCl, 1 mM EDTA, and 0.5% Nonidet P-40) for 25 minutes on ice and then centrifugated for 25 minutes at 14,500 rpm. The supernatants were diluted with the same buffer without NaCl (NETN-0) to obtain a final concentration of NaCl at 150 mM and incubated with indicated antibodies for 2 hours at 4° C., and then added protein-G beads (Santa Cruz) overnight. The beads were washed three times with cell lysis buffer and the precipitated proteins were subjected to western blot analysis.

c-Src = c-Src (UniProt P12931 2-536); assay: as above
Description: as §1, §2

T1 sequence (P05556 21-798 limits assumed): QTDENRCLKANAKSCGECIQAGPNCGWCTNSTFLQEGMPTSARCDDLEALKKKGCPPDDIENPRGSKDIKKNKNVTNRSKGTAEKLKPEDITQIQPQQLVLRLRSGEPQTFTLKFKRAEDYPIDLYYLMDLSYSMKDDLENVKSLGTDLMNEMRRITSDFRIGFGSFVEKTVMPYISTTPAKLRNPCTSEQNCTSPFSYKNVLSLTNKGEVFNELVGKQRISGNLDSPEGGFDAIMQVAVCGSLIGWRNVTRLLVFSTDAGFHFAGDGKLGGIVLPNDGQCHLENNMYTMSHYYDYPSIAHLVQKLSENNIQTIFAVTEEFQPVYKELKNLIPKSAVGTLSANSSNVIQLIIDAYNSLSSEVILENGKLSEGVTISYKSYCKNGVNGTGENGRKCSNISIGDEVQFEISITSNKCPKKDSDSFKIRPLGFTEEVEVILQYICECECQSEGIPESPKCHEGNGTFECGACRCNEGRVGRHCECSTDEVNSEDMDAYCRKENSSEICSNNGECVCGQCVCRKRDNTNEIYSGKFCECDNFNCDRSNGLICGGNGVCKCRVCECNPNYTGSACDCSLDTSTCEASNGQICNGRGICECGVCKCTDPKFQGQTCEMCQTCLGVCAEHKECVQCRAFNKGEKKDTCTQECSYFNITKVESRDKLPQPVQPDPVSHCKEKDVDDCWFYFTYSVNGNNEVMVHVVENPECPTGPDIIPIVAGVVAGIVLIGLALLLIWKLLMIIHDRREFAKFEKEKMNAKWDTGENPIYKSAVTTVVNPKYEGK

B1: RAD51AP1-DYRK4 fusion protein (E9-E2 variant) (other)
chain: MVRPVRHKKPVNYSQFDHSDSDDDFVSATVPLNKKSRTAPKELKQDKPKPNLNNLRKEEIPVQEKTPKKRMALDDKLYQRDLEVALALSVKELPTVTTNVQNSQDKSIEKHGSSKIETMNKSPHISNCSVASDYLDLDKITVEDDVGGVQGKRKAASKAAAQQRKILLEGSDGDSANDTEPDFAPGEDSEDDSDFCESEDNDEDFSMRKSKVKEIKKKEVKVKSPVEKKEKKSKSKCNALVTSVDSAPAAVKSESQSLPKKVSLSSDTTRKPLEIRSPSAESKKPKWVPPGLKWMLKSQGNVI
notes: Expressed from a doxycycline-inducible lentiviral vector in T47D cells (co-IP, western blot), or endogenous in MDAMB361 cells (western blot); also called E9-E2 protein; E9E2 fusion
binding result (integrin β1): no binding | binding result (c-Src): no binding
